From US20250043003A1 (ONCOC4, published 2025) come the findings set out here.

Where only a bound is given, the exact number is not on record here.

The target of experiment [1] is His-hCTLA-4 (polyhistidine-tagged CTLA-4) (human) (UniProt P16410). Kind of experiment: ELISA, plate-coated His-hCTLA-4, antibody 1 ug/ml, pH 5.5 against pH 7.0. On the technique in general: An ELISA detects its analyte on a solid surface through an enzyme-linked reagent.
The target in experiment [2] is T1, CTLA-4 (antigen of the affinity measurement of Table 1) (UniProt P16410 36-161, limits assumed).
T1 construct: Antigen form and method of the KD measurement are not described
T1 sequence (looked up): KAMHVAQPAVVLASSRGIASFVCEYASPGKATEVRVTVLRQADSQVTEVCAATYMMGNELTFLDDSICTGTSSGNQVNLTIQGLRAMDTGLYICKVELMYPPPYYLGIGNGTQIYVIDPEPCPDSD
Kind of experiment: affinity, method not stated.

In experiment [3] the target is T2, His-hCTLA-4 (polyhistidine-tagged CTLA-4) (human, UniProt P16410 36-161).
T2 construct: Coated on ELISA plates at 0.5 ug/ml; not shown: polyhistidine tag
T2 sequence (looked up): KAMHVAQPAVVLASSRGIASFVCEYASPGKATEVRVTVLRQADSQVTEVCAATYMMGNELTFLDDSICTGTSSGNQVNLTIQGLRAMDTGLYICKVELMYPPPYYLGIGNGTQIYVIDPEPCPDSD
Kind of experiment: ELISA, plate-coated His-hCTLA-4, antibody 1 ug/ml, pH 5.5 against pH 7.0. The protocol:
FIG. 1A-B. pH-sensitivity of TremeIgG1 and its variants. His-hCTLA-4 (0.5 μg/ml) was coated in ELISA plates and different anti-CTLA-4 mAbs were added at 1 μg/ml in the buffer over a pH range of 4.5 to 7.0. pH indicated represents binding and washing conditions. Antibodies bound to CTLA-4 were measured using horse-radish perioxidase-labeled anti-human IgG antibodies.
In order to validate the approach, the activity of the Tremelimumab mutant antibodies was evaluated. To determine if the introduction of histidine to the CDR regions affects the pH sensitivity of the antibodies, the antibody binding to its antigen, polyhistidine-tagged CTLA-4, was measured over a pH range. As a control, HL12, which is known to bind CTLA-4 in a pH-dependent manner, with reduced binding at low/acidic pH, was used.

Broadly, the Kd is a measure of binding affinity in units of concentration.

B1: HL12 (antibody, from another filing, V domains shown)
VH: QVQLQESGPGLVKPSETLSLTCTVSGFSLTSYGLSWIRQPPGKGLEWIGYIWYDGNTNFHPSLKSRVTISKDTSKNQFSLKLSSVTAADTAVYYCAKTEGHYYGSNYGYYALDYWGQGTSVTVSS
VL: DIQMTQSPSSLSASVGDRVTITCRASENIYSNLAWYQQKQGKAPKLLLYAATNLQDGVPSRFSGSGSGTDYTLTISSLQPEDFATYFCQHLWGTPYTFGQGTKLEIK
In experiment [1], B1 came in with a binding at pH 5.5 relative to neutral pH (pH 7.0) of under 50%.

B2: AB139 (TremeIgG1) (antibody, V domains shown)
VH: QVQLVESGGGVVQPGRSLRLSCAASGFTFSSYGMHWVRQAPGKGLEWVAVIWYDGSNKYYADSVKGRFTISRDNSKNTLYLQMNSLRAEDTAVYYCARDPRGATLYYYYYGMDVWGQGTTVTVSS
VL: DIQMTQSPSSLSASVGDRVTITCRASQSINSYLDWYQQKPGKAPKLLIYAASSLQSGVPSRFSGSGSGTDFTLTISSLQPEDFATYYCQQYYSTPFTFGPGTKVEIKR
notes: Tremelimumab variable regions; also called mAb139; WT TremeIgG1
B2 had a Kd in experiment [2] of 0.147 nM.

B3: AB157 (antibody, IgG1, V domains shown)
VH: QVQLVESGGGVVQPGRSLRLSCAASGFTFSSYGMHWVRQAPGKGLEWVAVIWYDGSNKYYADSVKGRFTISRDNSKNTLYLQMNSLRAEDTAVYYCARDPRGATLYHHYYGMDVWGQGTTVTVSS
VL: DIQMTQSPSSLSASVGDRVTITCRASQSINSYLDWYQQKPGKAPKLLIYAASSLQSGVPSRFSGSGSGTDFTLTISSLQPEDFATYYCQQYYSTPFTFGPGTKVEIKR
notes: TremeIgG1 mutant, IgG1; also called TremeIgG1M
In experiment [2], B3 had a Kd of 2.32 nM. In addition, the “binding at pH 5.5 relative to neutral pH (pH 7.0)” value in experiment [3] was at most 50%.

B4: AB156 (antibody, IgG1, V domains shown)
VH: QVQLVESGGGVVQPGRSLRLSCAASGFTFSSYGMHWVRQAPGKGLEWVAVIWYDGSNKYYADSVKGRFTISRDNSKNTLYLQMNSLRAEDTAVYYCARDPRGATLHHHYYGMDVWGQGTTVTVSS
VL: DIQMTQSPSSLSASVGDRVTITCRASQSINSYLDWYQQKPGKAPKLLIYAASSLQSGVPSRFSGSGSGTDFTLTISSLQPEDFATYYCQQYYSTPFTFGPGTKVEIKR
notes: TremeIgG1 mutant, IgG1; also called Mab156; TremeIgG1M
Take B4: in experiment [2], the Kd was found to be 4.46 nM. In addition, the “binding at pH 5.5 relative to neutral pH (pH 7.0)” value in experiment [3] was at most 50%.

B5: AB154 (antibody, V domains shown)
VH: QVQLVESGGGVVQPGRSLRLSCAASGFTFSHHGMHHVRQAPGKGLEWVAVIWYDGSNKYYADSVKGRFTISRDNSKNTLYLQMNSLRAEDTAVYYCARDPRGATLYYYYYGMDVWGQGTTVTVSS
VL: DIQMTQSPSSLSASVGDRVTITCRASQSINSYLDWYQQKPGKAPKLLIYAASSLQSGVPSRFSGSGSGTDFTLTISSLQPEDFATYYCQQYYSTPFTFGPGTKVEIKR
notes: TremeIgG1 mutant, IgG1; also called mAb154; TremeIgG1M
In the case of B5, binding in experiment [2] was put at a Kd of 1.23 nM.

B6: AB159 (antibody, IgG1, V domains shown)
VH: QVQLVESGGGVVQPGRSLRLSCAASGFTFSSYGMHWVRQAPGKGLEWVAVIWYDGSNKHHADSVKGRFTISRDNSKNTLYLQMNSLRAEDTAVYYCARDPRGATLYYYYYGMDVWGQGTTVTVSS
VL: DIQMTQSPSSLSASVGDRVTITCRASQSINSYLDWYQQKPGKAPKLLIYAASSLQSGVPSRFSGSGSGTDFTLTISSLQPEDFATYYCQQYYSTPFTFGPGTKVEIKR
notes: as for B3
In turn, B6 showed a Kd in experiment [2] of 0.387 nM. For the same molecule, the “binding at pH 5.5 relative to neutral pH (pH 7.0)” value in experiment [3] was at least 75%.

B7: AB158 (antibody, IgG1, V domains shown)
VH: QVQLVESGGGVVQPGRSLRLSCAASGFTFSSYGMHWVRQAPGKGLEWVAVIWYDGSNKYYADSVKGRFTISRDNSKNTLYLQMNSLRAEDTAVYYCARDPRGATLYHYYYGMDVWGQGTTVTVSS
VL: DIQMTQSPSSLSASVGDRVTITCRASQSINSYLDWYQQKPGKAPKLLIYAASSLQSGVPSRFSGSGSGTDFTLTISSLQPEDFATYYCQQYYSTPFTFGPGTKVEIKR
notes: as for B3
B7: the affinity in experiment [2], expressed as Kd, was 0.542 nM. Moreover, in experiment [3], the “binding at pH 5.5 relative to neutral pH (pH 7.0)” value was at least 75%.
